Laboratory results taken from patent US20210009703A1 (TUSK THERAPEUTICS, published 2021).

What was measured:
[1] = target: T1, recombinant human CD25 his tagged (human, UniProt P01589 22-240); assay: ForteBio BLI, avidity format: rhCD25-His on Ni-NTA sensors, IgG in solution; IgG in solution, avidity format
T1 construct: also called rhCD25-his; rhCD25; not shown: His tag
T1 sequence: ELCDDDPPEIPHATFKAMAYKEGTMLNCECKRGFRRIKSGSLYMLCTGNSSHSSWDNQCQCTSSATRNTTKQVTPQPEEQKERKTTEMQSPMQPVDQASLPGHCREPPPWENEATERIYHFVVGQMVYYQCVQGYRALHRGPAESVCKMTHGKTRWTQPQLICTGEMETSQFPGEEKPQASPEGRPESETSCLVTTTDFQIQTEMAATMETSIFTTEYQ

[2] = target: T2, human CD25 expressed on cells (human, UniProt P01589 22-272); assay: flow cytometry on SU-DHL-1 cells, PE anti-human IgG Fc secondary
T2 construct: Endogenous CD25 on human cells; also called CD25 on human in vitro differentiated Treg cells, SU-DHL-1 cells, SR-786 cells and PBMC
T2 sequence: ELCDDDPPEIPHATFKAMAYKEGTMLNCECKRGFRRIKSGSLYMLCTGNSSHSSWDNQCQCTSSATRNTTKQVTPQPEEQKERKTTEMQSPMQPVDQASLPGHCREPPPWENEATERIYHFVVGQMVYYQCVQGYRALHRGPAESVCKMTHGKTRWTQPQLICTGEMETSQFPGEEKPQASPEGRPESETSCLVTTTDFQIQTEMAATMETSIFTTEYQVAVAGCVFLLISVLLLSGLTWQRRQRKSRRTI
Protocol: Cells were washed again and resuspended in FACS buffer containing DAPI and acquired on the Intellicyt iQue. Live cells were gated using FSC vs SSC parameters by flow cytometry during sample acquisition. Geo Mean Intensity of stained cells were plotted on an XY chart, graphing Geo Mean Intensity against the log of the concentration, and the data fit to a non-linear regression curve from which the EC50 is calculated.

Kd [1]: 1.2 nM
EC50 (read off the curve) [2]: ~0.2 µg/mL
B1: aCD25-a-672 (antibody, V domains shown)
VH: QVQLVQSGAEVKKPGSSVKVSCKASGGTFSSYAISWVRQAPGQGLEWMGGIIPIFGTANYAQKFQGRVTITADESTSTAYMELSSLRSEDTAVYYCAREYDYKEDWGQGTLVTVSS
VL: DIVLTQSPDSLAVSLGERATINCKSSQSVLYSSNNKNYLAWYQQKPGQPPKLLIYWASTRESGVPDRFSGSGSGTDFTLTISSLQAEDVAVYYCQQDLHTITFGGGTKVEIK
notes: An afucosylated IgG1 form was also made
